The source of these data is patent publication US20230374088A1.

The experiment concerns the target mNeonGreen-tagged full length Gli2 (human) (UniProt P10070). In words: cell-based or functional assay.

In turn, “mRuby-tagged Kif7-CC (460-600aa) with ER localization signal (from UniProt Q2M1P5 460-600)” yielded an amount of Gli2 in the nucleus as a percentage of total Gli expression (mNeonGreen intensity), HeLa cells of under 25%.
